{"source": "patent US10385103B2", "about": "“Cell-permeable (ICP)-SOCS3 recombinant protein and uses thereof” (CELLIVERY THERAPEUTICS, INC., priority 2014, dated 2019)", "molecules": {"B1": {"name": "HM165S3B: His-tagged recombinant protein of aMTD165, human SOCS3 and solubilization domain B; prototype improved cell-permeable SOCS3 (protein)", "chain": "MGSSHHHHHHSSGLVPRGSHMALAVPVALAIVPVTHSKFPAAGMETSRPLDTSLRLKTFSSKSEYQLVVNAVRKLQESGFYWSAVTGGEANLLLSAEPAGTFLIRDSSDQRHFFTLSVKTQSGTKNLRIQCEGGSFSLQSDPRSTQPVPRFDCVLKLVHHYMETPPPGAPSFPSPPTEPSSEVPEQPSAQPLPGSPPRRAYYIYSGGEKIPLVLSRPLSSNVATLQHLCRKTVNGHLDSYEKVTQLPGPIREFLDQYDAPLGSMAEQSDKDVKYYTLEEIQKHKDSKSTWVILHHKVYDLTKFLEEHPGGEEVLGEQAGGDATENFEDVGHSTDARELSKTYIIGELHPDDRSKIAKPSETL", "modifications": "Amino acid sequence of HM165S3B"}}, "key": {"[1]": {"tested_on": "HepG2 cells", "test": "Cell-permeability of FITC-labeled SOCS3 recombinant proteins in hepatocellular carcinoma cells (flow cytometry)", "type": "cell-based, human", "details": "10 μM FITC-labeled protein, 1 hr, 37° C.", "method": "HepG2 cells (ATCC, Manassas, Va., USA) were seeded in a 12 well plate, grown to 90% confluence. Cells were treated with 10 μM FITC-labeled iCP-SOCS3 recombinant proteins and cultivated for 1 hr at 37° C.\nAfter cultivation, the cells were treated with proteinase K (10 ug/mL, SIGMA, USA) and washed three times with ice-cold PBS (Phosphate-buffered saline, Hyclone, USA) to remove surface-bound proteins, and internalized proteins were measured by flow cytometry (FlowJo cytometric analysis software, Guava, Millipore, Darmstadt, Germany). Untreated cells (gray) and equimolar concentration of unconjugated FITC (FITC only, green)-treated cells were served as control (FIG. 57)."}, "[2]": {"tested_on": "Chang cell", "test": "Cell viability of non-cancer cells, CellTiter-Glo", "type": "cell-based, human", "details": "10 μM over 4 days", "method": "(§1) Cells originated from human hepatocellular carcinoma cell (Hep3B, HepG2, Huh-7, SK-Hep1), human normal cells (HEK293, HaCaT, Chang liver cell) and mouse fibroblast (NIH3T3) were purchased from ATCC (Manassas, Va., USA) and KCLB (Seoul, Korea). All the cells were maintained as recommended by the supplier. These cells (3×10^3/well) were seeded in 96 well plates. The next day, cells were treated with DMEM (vehicle) or 10 μM recombinant SOCS3 proteins for 96 hrs in the presence of serum (2%). Proteins were replaced daily. Cell growth and survival were evaluated with the CellTiter-Glo Cell Viability Assay (Promega, Madison, Wis.). Measurements using a Luminometer (Turner Designs, Sunnyvale, Calif.) were conducted following the manufacturer's protocol."}, "[3]": {"tested_on": "PANC-1-Luc cells", "test": "Tumor targeting in orthotopic pancreatic cancer xenograft model (Alexa680 imaging)", "type": "in vivo, Balb/c nu/nu mice", "details": "IV 40 mg/kg Alexa680-labeled protein; listed as iCP-SOCS3, 40 mg/kg", "method": "Tumor-targeting of the anticancer agent iCP-SOCS3 (HM165S3B) recombinant proteins was investigated in an orthotopic xenograft model. The protocol was adapted from World J Gastroenterol. 2014 Jul. 28; 20(28): 9476-9485. […] After 7 weeks, the mice were IP injected with 100 μl of luciferin (Sigma-Aldrich, St. Louis, Mo., USA) and imaged by Xenogen IVIS-200 imaging system 15 minute later. As shown in FIG. 88 (A), pancreatic cancer model was well established.\nThe iCP-SOCS3 recombinant proteins were labeled and IV injected to the mice with 40 mg/kg according to a manual of Alexa680 kit (Thermo Fisher Scientific, San Jose, Calif., USA)."}, "[4]": {"tested_on": "Hep3B2.1-7 hepatocellular carcinoma cells", "test": "Anti-proliferative activity, CellTiter-Glo, hepatocellular carcinoma cells", "type": "cell-based, human", "details": "10 μM, 96 hrs, compared to vehicle", "method": "as §1"}, "[5]": {"tested_on": "Bcl-2, NF-κB (p-p65), cleaved caspase-3 in HepG2 cells", "test": "Immunoblotting of apoptosis-related proteins", "type": "cell-based, human", "details": "10 μM, 24 hr", "method": "(§2) Cells were treated for 24 hr with 10 μM HS3B or HM165S3B proteins, lysed in RIPA lysis buffer containing proteinase inhibitor cocktail, incubated for 15 min at 4° C., and centrifuged at 13,000 rpm for 10 min at 4° C. Equal amounts of lysates were separated on 15% SDS-PAGE gels and transferred to a nitrocellulose membrane. The membranes were blocked using 5% skim milk or 5% Albumin in TBST and incubated with the following antibodies: anti-Bcl-2 (Santa Cruz biotechnology), anti-Cleaved Caspase 3 (Cell Signaling Technology), anti-phospho-p65 and anti-p65 (Cell Signaling Technology), then HRP conjugated anti-mouse or anti-rabbit secondary antibody. The expression of each protein was determined by immunoblotting with indicated antibodies. An antibody against β-actin was used as a loading control."}, "[6]": {"tested_on": "Bcl-2, NF-κB (p-p65), cleaved caspase-3 in Hep3B cells", "test": "Immunoblotting of apoptosis-related proteins", "type": "cell-based, human", "details": "10 μM, 24 hr", "method": "as §2"}, "[7]": {"tested_on": "Hep3B2.1-7 tumor", "test": "Anti-tumor activity in cell-derived xenograft model", "type": "in vivo, Balb/c nu/nu mice", "details": "IV 600 μg/head for 21 days", "description": "Female Balb/c^nu/nu mice (5-week-old, Doo-Yeol Biotech Co. Ltd. Korea) were subcutaneously implanted with Hep3B2.1-7 tumor block (1 mm^3) into the left back side of the mouse. […] Tumor size was monitored by measuring the longest (length) and shortest dimensions (width) once a day with a dial caliper, and tumor volume was calculated as width2×length×0.5."}, "[8]": {"tested_on": "AGS cells", "test": "Antiproliferative activity, CellTiter-Glo Cell Viability Assay", "type": "cell-based", "details": "10 μM, 96 hrs, 2% serum", "method": "Antiproliferative activity were evaluated with the CellTiter-Glo Cell Viability Assay. AGS cells (3×10^3/well) were seeded in 96 well plates. The next day, cells were treated with DMEM (vehicle) or 10 μM HM165S3B, HM15S3B′(V28L) for 96 hrs in the presence of serum (2%). Proteins were replaced daily. Cell growth and survival were evaluated with the CellTiter-Glo Cell Viability Assay (Promega, Madison, Wis.). Measurements using a Luminometer (Turner Designs, Sunnyvale, Calif.) were conducted following the manufacturer's protocol."}, "[9]": {"test": "Solubility/yield of SOCS3 recombinant proteins expressed and purified from E. coli", "type": "physicochemical", "method": "Thereafter, the recombinant protein gene-introduced E. coli was inoculated in 7 ml of LB medium, and then incubated at 37° C. overnight. The E. coli was inoculated in 700 ml of LB medium and incubated at 37° C. until OD600 reached 0.6. To this culture medium, 0.6 mM of isopropyl-β-D-thiogalactoside (IPTG, Gen Depot, USA) was added as a protein expression inducer, followed by further incubation at 37° C. for 3 hours. This culture medium was centrifuged at 4° C. and 8,000 rpm for 10 minutes and a supernatant was discarded to recover a cell pellet. The cell pellet thus recovered was suspended in a lysis buffer (100 mM NaH2PO4, 10 mM Tris-HCl, 8 M Urea, pH 8.0), and cells were disrupted by sonication (on/off time: 30 sec/30 sec, on time 2 hours, amplify 40%), and centrifuged at 15,000 rpm for 30 min to obtain a soluble fraction and an insoluble fraction.\nAfter purification, the proteins were put in a SnakeSkin Dialysis Tubing bag (pore size: 10000 mw, Thermo scientific, USA) and then they were dialyzed by physiological buffer (DMEM). The strain lysate where protein expression was not induced, the strain lysate where protein expression was induced by addition of IPTG, and purified proteins were loaded on SDS-PAGE to analyze protein expression characteristics and expression levels (FIGS. 19 and 20).\nSolubility of aMTD/SD-fused SOCS3 proteins was scored on a 5 point scale compared with that of SOCS3 proteins lacking the solubilization domain."}}, "note": "Entries after “also recorded” stand apart in the source; their conditions may differ. Where two headings read alike, the source gives them in different places.", "data": [{"molecule": "B1", "values": [{"measurement": "transduction into HepG2 cells", "setting": "[1]", "result": "promoted the transduction into cultured HCC HepG2 cells"}, {"measurement": "cell viability of non-cancer cells (Chang cell)", "setting": "[2]", "result": "not overly toxic to normal cells"}, {"measurement": "biodistribution / tumor accumulation", "setting": "[3]", "result": "delivered to every part of the body at 5 minutes; also recorded: a large amount of the proteins were accumulated only in tumor"}, {"measurement": "cytotoxicity to Hep3B2.1-7 cells", "setting": "[4]", "result": "over 80%"}, {"measurement": "expression of Bcl-2, HepG2", "setting": "[5]", "result": "dramatically reduced"}, {"measurement": "expression of NF-κB (p-p65), HepG2", "setting": "[5]", "result": "dramatically reduced"}, {"measurement": "level of cleaved caspase-3, HepG2", "setting": "[5]", "result": "increased"}, {"measurement": "expression of Bcl-2, Hep3B", "setting": "[6]", "result": "dramatically reduced"}, {"measurement": "expression of NF-κB (p-p65), Hep3B", "setting": "[6]", "result": "dramatically reduced"}, {"measurement": "level of cleaved caspase-3, Hep3B", "setting": "[6]", "result": "increased"}, {"measurement": "tumor growth inhibition at day 21", "setting": "[7]", "result": 80, "unit": "%"}, {"measurement": "tumor growth inhibition at day 35", "setting": "[7]; 2 weeks after termination", "result": 70, "unit": "%"}, {"measurement": "anti-proliferative activity", "setting": "[8]", "result": "high anti-proliferative effects on gastric carcinoma cells"}, {"measurement": "solubility/yield", "setting": "[9]", "result": "high solubility/yield"}, {"measurement": "solubility (tendency to precipitate)", "setting": "[9]; expressed and purified in E. coli", "result": "had little tendency to precipitate"}, {"measurement": "solubility/yield", "setting": "[9]; listed as SDB-fused iCP-SOCS3 recombinant protein", "result": "showed the highest solubility/yield"}, {"measurement": "solubility/yield", "setting": "[9]; listed as aMTD165/SD-fused SOCS3 recombinant proteins", "result": "much higher than that of TAT/SD-fused SOCS3 or PolyR/SD-fused SOCS3 recombinant proteins"}]}]}
